{"source": "patent US5830699", "biological_target": "HA-SOK-1 (human)", "data": [{"substance": "catalytic subunit of protein phosphatase 2A (enzyme)", "values": [{"measurement": "SOK-1 kinase activity", "result": 40, "unit": "%"}]}]}
